Patent US20250340902A1, “GENE THERAPY FOR BVES-RELATED DISORDERS” (OHIO STATE INNOVATION FOUNDATION, priority 2022, published 2025)

Experiments:
Assay in all cases: anti-HA co-IP from muscle, MS; CTRL 0
[1] = biological target: Dual specificity mitogen-activated protein kinase kinase 3 (Mus musculus) (UniProt O09110)
[2] = biological target: Patatin-like phospholipase domain-containing protein 7 (Mus musculus) (UniProt A2AJ88)
[3] = biological target: ATP-binding cassette sub-family F member 1 (Mus musculus) (UniProt Q6P542)
[4] = biological target: Nucleolar protein 12 (Mus musculus) (UniProt Q8BG17)
[5] = biological target: Beta-sarcoglycan (Mus musculus) (UniProt P82349)
[6] = biological target: Dystrobrevin alpha (Mus musculus) (UniProt Q9D2N4)
[7] = biological target: Alanine--tRNA ligase, cytoplasmic (Mus musculus) (UniProt Q8BGQ7)
[8] = biological target: 26S proteasome non-ATPase regulatory subunit 7 (Mus musculus) (UniProt P26516)
[9] = biological target: Tetraspanin-8 (Mus musculus) (UniProt Q8R3G9)
[10] = biological target: Phosphofurin acidic cluster sorting protein 1 (Mus musculus) (UniProt Q8K212)
[11] = biological target: Calcium/calmodulin-dependent protein kinase type II subunit gamma (Mus musculus) (UniProt Q923T9)
[12] = biological target: mRNA turnover protein 4 homolog (Mus musculus) (UniProt Q9D0I8)
[13] = biological target: Platelet glycoprotein 4 (Mus musculus) (UniProt Q08857)
[14] = biological target: Methylcrotonoyl-CoA carboxylase subunit alpha, mitochondrial (Mus musculus) (UniProt Q99MR8)
[15] = biological target: DnaJ homolog subfamily B member 12 (Mus musculus) (UniProt Q9QYI4)
[16] = biological target: Mannose-binding protein C (Mus musculus) (UniProt P41317)
[17] = biological target: Microtubule-associated protein 4 (Mus musculus) (UniProt P27546)
[18] = biological target: Leucine-rich PPR motif-containing protein, mitochondrial (Mus musculus) (UniProt Q6PB66)
[19] = biological target: Transmembrane protein 43 (Mus musculus) (UniProt Q9DBS1)
[20] = biological target: Charged multivesicular body protein 4b (Mus musculus) (UniProt Q9D8B3)
[21] = biological target: Nuclear mitotic apparatus protein 1 (Mus musculus) (UniProt E9Q7G0)
[22] = biological target: Popeye domain-containing protein 3 (Mus musculus) (UniProt Q9ES81)
[23] = biological target: Glypican-4 (Mus musculus) (UniProt P51655)
[24] = biological target: Indolethylamine N-methyltransferase (Mus musculus) (UniProt P40936)
Talin-2 (Mus musculus) = Talin-2 (Mus musculus) (UniProt Q71LX4)
Dysferlin (Mus musculus) = Dysferlin (Mus musculus) (UniProt Q9ESD7)
[25] = biological target: Exosome complex exonuclease RRP44 (Mus musculus) (UniProt Q9CSH3)
[26] = biological target: Dystroglycan (Mus musculus) (UniProt Q62165)
[27] = biological target: Heterogeneous nuclear ribonucleoprotein M (Mus musculus) (UniProt Q9D0E1)
Elongin-A (Mus musculus) = Elongin-A (Mus musculus) (UniProt Q8CB77)
[28] = biological target: Glutamine amidotransferase-like class 1 domain-containing protein 3A, mitochondrial (Mus musculus) (UniProt Q9D172)
[29] = biological target: Collagen alpha-1(XV) chain (Mus musculus) (UniProt O35206)
[30] = biological target: Transcriptional regulator ATRX (Mus musculus) (UniProt Q61687)
[31] = biological target: LEM domain-containing protein 2 (Mus musculus) (UniProt Q6DVA0)
[32] = biological target: SUN domain-containing protein 2 (Mus musculus) (UniProt Q8BJS4)
[33] = biological target: Ribosomal protein S6 kinase alpha-2 (Mus musculus) (UniProt Q9WUT3)
[34] = biological target: Heterogeneous nuclear ribonucleoprotein L (Mus musculus) (UniProt Q8R081)
Cullin-1 (Mus musculus) = Cullin-1 (Mus musculus) (UniProt Q9WTX6)
[35] = biological target: Sodium channel protein type 4 subunit alpha (Mus musculus) (UniProt Q9ER60)

Chain of Collagen alpha-1(XV) chain (Mus musculus) (O35206 32-1367 limits assumed): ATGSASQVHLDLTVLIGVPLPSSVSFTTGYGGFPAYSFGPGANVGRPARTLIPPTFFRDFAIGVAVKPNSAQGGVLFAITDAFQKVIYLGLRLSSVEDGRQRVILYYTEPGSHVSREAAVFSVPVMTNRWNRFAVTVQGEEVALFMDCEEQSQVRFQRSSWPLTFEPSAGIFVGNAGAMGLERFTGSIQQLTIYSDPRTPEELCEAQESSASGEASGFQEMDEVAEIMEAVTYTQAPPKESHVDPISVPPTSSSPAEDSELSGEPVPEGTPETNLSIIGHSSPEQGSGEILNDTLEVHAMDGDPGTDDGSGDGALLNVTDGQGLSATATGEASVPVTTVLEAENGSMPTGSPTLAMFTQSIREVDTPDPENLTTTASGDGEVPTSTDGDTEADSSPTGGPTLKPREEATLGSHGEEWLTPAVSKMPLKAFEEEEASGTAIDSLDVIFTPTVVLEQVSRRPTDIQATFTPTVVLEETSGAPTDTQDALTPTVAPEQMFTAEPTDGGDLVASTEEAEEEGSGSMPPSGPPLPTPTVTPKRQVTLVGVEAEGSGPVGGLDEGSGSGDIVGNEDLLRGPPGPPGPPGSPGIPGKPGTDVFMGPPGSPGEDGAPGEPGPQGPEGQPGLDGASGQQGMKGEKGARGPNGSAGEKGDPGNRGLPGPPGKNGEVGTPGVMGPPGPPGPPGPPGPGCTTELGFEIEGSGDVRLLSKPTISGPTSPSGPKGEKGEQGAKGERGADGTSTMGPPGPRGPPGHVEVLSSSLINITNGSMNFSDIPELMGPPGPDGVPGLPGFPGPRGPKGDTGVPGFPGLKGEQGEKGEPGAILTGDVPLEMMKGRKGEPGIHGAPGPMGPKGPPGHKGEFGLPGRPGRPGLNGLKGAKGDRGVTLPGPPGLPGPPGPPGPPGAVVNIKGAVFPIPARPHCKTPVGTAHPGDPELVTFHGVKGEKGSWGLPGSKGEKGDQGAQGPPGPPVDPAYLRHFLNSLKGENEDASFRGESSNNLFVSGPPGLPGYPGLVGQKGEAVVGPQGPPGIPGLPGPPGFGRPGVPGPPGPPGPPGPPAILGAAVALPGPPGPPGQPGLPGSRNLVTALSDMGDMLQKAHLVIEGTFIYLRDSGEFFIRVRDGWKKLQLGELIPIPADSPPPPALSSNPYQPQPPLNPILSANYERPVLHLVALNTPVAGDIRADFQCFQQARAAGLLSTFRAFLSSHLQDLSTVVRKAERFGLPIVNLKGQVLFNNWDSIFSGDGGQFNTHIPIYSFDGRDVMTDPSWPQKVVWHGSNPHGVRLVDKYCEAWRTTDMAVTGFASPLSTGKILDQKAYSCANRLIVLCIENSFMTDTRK
Chain of 26S proteasome non-ATPase regulatory subunit 7 (Mus musculus) (P26516 whole entry): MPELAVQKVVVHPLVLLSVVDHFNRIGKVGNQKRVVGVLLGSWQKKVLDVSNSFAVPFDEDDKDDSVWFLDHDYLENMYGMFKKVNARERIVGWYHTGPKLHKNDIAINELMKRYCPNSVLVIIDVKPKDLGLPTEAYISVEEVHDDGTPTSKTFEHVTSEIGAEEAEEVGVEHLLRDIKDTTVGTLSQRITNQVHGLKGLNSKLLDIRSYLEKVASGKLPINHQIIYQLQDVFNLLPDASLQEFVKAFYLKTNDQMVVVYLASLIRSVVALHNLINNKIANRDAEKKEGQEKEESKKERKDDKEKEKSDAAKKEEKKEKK
Chain of Charged multivesicular body protein 4b (Mus musculus) (Q9D8B3 2-224 limits assumed): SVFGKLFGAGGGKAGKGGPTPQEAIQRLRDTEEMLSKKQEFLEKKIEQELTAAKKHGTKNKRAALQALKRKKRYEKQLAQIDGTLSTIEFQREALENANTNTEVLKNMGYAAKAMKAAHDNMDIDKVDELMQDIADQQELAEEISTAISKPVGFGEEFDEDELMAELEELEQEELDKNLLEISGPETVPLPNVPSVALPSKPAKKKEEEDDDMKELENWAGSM
Chain of Dystroglycan (Mus musculus) (Q62165 28-893 limits assumed): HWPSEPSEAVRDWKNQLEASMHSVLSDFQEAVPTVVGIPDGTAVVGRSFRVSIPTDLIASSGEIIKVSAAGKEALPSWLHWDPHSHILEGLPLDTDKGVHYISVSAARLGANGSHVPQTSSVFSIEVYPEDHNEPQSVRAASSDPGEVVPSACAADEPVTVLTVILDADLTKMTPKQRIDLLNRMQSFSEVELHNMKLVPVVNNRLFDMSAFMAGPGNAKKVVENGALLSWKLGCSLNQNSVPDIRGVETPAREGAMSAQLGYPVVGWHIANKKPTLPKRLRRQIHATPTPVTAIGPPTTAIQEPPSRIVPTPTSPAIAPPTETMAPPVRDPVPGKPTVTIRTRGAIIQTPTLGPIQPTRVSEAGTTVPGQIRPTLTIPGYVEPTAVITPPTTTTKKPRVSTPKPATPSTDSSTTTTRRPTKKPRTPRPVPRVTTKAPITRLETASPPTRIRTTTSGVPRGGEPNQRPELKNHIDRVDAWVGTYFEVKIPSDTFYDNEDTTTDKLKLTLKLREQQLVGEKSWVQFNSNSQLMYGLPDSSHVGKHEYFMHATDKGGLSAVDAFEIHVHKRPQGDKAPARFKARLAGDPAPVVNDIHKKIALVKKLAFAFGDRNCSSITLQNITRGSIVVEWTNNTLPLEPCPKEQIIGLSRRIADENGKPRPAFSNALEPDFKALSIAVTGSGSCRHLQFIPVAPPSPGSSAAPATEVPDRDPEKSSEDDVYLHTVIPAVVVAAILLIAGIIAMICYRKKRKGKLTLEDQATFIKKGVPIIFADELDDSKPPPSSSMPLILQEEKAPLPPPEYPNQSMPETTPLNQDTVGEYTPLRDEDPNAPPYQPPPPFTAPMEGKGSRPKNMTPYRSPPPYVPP
Chain of Beta-sarcoglycan (Mus musculus) (P82349 whole entry): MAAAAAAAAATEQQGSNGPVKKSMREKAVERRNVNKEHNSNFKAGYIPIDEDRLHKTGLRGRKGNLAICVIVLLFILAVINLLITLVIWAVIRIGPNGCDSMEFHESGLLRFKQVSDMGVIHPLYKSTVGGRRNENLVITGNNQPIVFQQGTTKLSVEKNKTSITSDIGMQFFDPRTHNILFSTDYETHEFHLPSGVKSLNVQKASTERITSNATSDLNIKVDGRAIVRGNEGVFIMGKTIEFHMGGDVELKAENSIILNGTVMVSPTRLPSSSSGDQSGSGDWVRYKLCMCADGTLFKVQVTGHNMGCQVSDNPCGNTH
Chain of Glutamine amidotransferase-like class 1 domain-containing protein 3A, mitochondrial (Mus musculus) (Q9D172 40-266 limits assumed): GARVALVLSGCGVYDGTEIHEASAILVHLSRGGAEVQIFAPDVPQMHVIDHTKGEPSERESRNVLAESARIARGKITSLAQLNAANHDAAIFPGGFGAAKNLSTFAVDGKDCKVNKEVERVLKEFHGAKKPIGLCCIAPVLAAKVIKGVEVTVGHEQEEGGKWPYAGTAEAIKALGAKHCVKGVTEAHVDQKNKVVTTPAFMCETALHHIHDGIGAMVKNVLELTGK
Chain of Exosome complex exonuclease RRP44 (Mus musculus) (Q9CSH3 whole entry, one chain of several): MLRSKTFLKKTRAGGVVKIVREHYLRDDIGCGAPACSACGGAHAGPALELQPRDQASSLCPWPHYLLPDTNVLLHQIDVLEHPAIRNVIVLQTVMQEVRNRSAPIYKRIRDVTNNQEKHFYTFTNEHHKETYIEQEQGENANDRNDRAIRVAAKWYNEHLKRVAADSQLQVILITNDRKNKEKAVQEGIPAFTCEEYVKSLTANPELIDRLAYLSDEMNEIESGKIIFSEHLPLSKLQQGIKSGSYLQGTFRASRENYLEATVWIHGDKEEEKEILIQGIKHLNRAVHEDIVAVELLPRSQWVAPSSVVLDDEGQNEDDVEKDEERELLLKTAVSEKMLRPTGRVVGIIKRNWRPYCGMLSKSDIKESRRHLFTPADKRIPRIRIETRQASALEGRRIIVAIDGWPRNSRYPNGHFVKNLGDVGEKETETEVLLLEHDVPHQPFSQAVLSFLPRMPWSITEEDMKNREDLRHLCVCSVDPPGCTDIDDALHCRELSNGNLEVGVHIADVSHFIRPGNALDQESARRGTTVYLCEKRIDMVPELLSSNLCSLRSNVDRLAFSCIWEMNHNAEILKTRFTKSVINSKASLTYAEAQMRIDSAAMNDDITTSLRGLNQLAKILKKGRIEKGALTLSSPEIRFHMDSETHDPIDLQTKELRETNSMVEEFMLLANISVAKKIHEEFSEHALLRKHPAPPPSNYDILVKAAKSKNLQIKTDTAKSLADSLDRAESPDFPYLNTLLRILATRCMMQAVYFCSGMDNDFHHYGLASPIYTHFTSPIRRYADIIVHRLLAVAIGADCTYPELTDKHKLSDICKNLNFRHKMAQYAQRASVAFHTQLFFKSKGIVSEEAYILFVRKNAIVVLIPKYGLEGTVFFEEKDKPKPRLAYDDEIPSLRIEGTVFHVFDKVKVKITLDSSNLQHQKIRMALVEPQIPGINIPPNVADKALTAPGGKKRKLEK
Chain of Tetraspanin-8 (Mus musculus) (Q8R3G9 whole entry): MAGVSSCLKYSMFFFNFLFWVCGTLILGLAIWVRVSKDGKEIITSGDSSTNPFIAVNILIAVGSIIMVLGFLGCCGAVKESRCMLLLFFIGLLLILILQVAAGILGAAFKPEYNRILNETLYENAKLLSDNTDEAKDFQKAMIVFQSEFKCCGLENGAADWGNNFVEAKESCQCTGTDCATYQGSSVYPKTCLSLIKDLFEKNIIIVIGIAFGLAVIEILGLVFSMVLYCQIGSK
Chain of human BVES fused with 3xHA tag (Q8NE79 other isoform, or with tags, fused parts or gaps limits assumed): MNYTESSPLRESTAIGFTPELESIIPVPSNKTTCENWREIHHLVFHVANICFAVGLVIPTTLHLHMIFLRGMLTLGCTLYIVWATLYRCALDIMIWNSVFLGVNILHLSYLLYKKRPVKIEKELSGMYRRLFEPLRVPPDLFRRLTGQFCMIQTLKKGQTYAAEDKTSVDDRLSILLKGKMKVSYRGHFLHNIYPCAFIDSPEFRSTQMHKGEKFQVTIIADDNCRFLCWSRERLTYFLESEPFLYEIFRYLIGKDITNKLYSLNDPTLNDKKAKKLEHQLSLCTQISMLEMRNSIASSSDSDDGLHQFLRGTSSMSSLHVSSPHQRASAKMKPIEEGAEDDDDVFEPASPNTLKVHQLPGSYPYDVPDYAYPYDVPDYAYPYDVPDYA

Q: For “human BVES fused with 3xHA tag (from UniProt Q8NE79 1-360)”, which AAV9-BVES-HA (IP-MS count) [1] is on record?
A: 3

Q: And the AAV9-BVES-HA (IP-MS count) [2]?
A: 2

Q: And the AAV9-BVES-HA (IP-MS count) [3]?
A: 4

Q: And the AAV9-BVES-HA (IP-MS count) [4]?
A: 2

Q: What about the AAV9-BVES-HA (IP-MS count) [5] of the same substance?
A: 9

Q: What about the AAV9-BVES-HA (IP-MS count) [6] of the same substance?
A: 4

Q: What about the AAV9-BVES-HA (IP-MS count) [7] of the same substance?
A: 4

Q: What about the AAV9-BVES-HA (IP-MS count) [8] of the same substance?
A: 2

Q: What about the AAV9-BVES-HA (IP-MS count) [9] of the same substance?
A: 2

Q: And the AAV9-BVES-HA (IP-MS count) [10]?
A: 2

Q: What about the AAV9-BVES-HA (IP-MS count) [11] of the same substance?
A: 13

Q: And the AAV9-BVES-HA (IP-MS count) [12]?
A: 2

Q: And the AAV9-BVES-HA (IP-MS count) [13]?
A: 2

Q: And the AAV9-BVES-HA (IP-MS count) [14]?
A: 3

Q: And the AAV9-BVES-HA (IP-MS count) [15]?
A: 2

Q: And the AAV9-BVES-HA (IP-MS count) [16]?
A: 2

Q: And the AAV9-BVES-HA (IP-MS count) [17]?
A: 2

Q: What about the AAV9-BVES-HA (IP-MS count) [18] of the same substance?
A: 8

Q: What about the AAV9-BVES-HA (IP-MS count) [19] of the same substance?
A: 2

Q: And the AAV9-BVES-HA (IP-MS count) [20]?
A: 2

Q: And the AAV9-BVES-HA (IP-MS count) [21]?
A: 2

Q: And the AAV9-BVES-HA (IP-MS count) [22]?
A: 5

Q: And the AAV9-BVES-HA (IP-MS count) [23]?
A: 11

Q: What about the AAV9-BVES-HA (IP-MS count) [24] of the same substance?
A: 2

Q: And the AAV9-BVES-HA (IP-MS count) (Talin-2 (Mus musculus))?
A: 3

Q: And the AAV9-BVES-HA (IP-MS count) (Dysferlin (Mus musculus))?
A: 12

Q: What about the AAV9-BVES-HA (IP-MS count) [25] of the same substance?
A: 2

Q: And the AAV9-BVES-HA (IP-MS count) [26]?
A: 4

Q: What about the AAV9-BVES-HA (IP-MS count) [27] of the same substance?
A: 2

Q: And the AAV9-BVES-HA (IP-MS count) (Elongin-A (Mus musculus))?
A: 3

Q: What about the AAV9-BVES-HA (IP-MS count) [28] of the same substance?
A: 4

Q: What about the AAV9-BVES-HA (IP-MS count) [29] of the same substance?
A: 7

Q: And the AAV9-BVES-HA (IP-MS count) [30]?
A: 6

Q: What about the AAV9-BVES-HA (IP-MS count) [31] of the same substance?
A: 2

Q: What about the AAV9-BVES-HA (IP-MS count) [32] of the same substance?
A: 14

Q: What about the AAV9-BVES-HA (IP-MS count) [33] of the same substance?
A: 12

Q: What about the AAV9-BVES-HA (IP-MS count) [34] of the same substance?
A: 2

Q: What about the AAV9-BVES-HA (IP-MS count) (Cullin-1 (Mus musculus)) of the same substance?
A: 2

Q: What about the AAV9-BVES-HA (IP-MS count) [35] of the same substance?
A: 19
